System: HK-2 cells
Assay: Sepsis-associated AKI model: cell-free hemoglobin-treated HK-2 cells, MTT, LDH, CC3, Ki-67, MDA
Type: cell-based
Protocol: Immortalized human cortical and proximal tubular epithelial (HK-2) cells were cultured in DMEM-F-12 with FBS [10% (wt/vol)] (Life Technologies, Carlsbad, CA), Insulin-Transferrin-Selenium (ITS) (Corning, Corning, NY), hydrocortisone (0.1 μM), and 1% Penicillin/Streptomycin. […] To induce the sepsis-associated AKI model, cells at confluence were exposed to 1 mg/ml purified cell-free hemoglobin (CFH) for 48 h. For all experiments, we used CFH purified from normal human blood by high pressure liquid chromatography (Pishchany, G., et al. J Vis Exp. 2013 Feb. 7 (72): 50072). After 48 h, the control or treated cells were harvested for immunostaining or assays. In both models, culture media was replaced after 48 h. For iNP-EV treatment, 10 μg of EVs was added to cells for the next 24 h.
The organoids were washed with PBS and then treated with MTT (3-(4,5-dimethylthiazol-2-yl)-2,5-diphenyltetrazolium bromide) reagent (Sigma-Aldrich) (1 mg/ml) for at least 60 min, leading to the purple formazan formation in living cells. The reagents were then removed and isopropanol was added to dissolve the insoluble formazan. The absorbance of the colored solution was measured using a microplate reader at 560 nm and 690 nm. Background absorbance at 690 nm was subtracted from absorbance at 560 nm and the O.D. values were plotted to measure cell viability.
LDH release from the cells was evaluated using CyQUANT™ LDH Cytotoxicity Assay Kit. Briefly, cell culture medium was collected for other purposes at 48 h after the treatment. The cells were treated with 10% Triton X-100 and incubated for 15 min before to obtain the maximum LDH release from the sample. Cell culture media was collected and 50 μl of each sample was transferred into a 96-well opaque-walled, non-transparent assay plate. The LDH detection reagent was prepared by combining the LDH detection enzyme mix and reductase substrate. Then 50 μl of detection reagent was added to each well. The wells were incubated for 60 min at room temperature. […] was recorded on a plate reader at 490 nm and the corresponding O.D. was plotted to quantify cell death.

[1] = HK-2, 1 mg/ml CFH 48 h vs control

With “CFH: cell-free hemoglobin purified from normal human blood by high pressure liquid chromatography; induces sepsis-associated AKI model” the “concentration of Malondialdehyde (MDA), lipid peroxidation” value (HK-2, 1 mg/ml CFH 48 h, without CFH ~3.5 μM, p<0.0001) was 22.5 µM, the “cleaved caspase-3 staining” value [1] was “increased” and the “proliferation by Ki-67 staining” value [1] was “not different between the groups”. For the same substance, the LDH release (HK-2, 1 mg/ml CFH 48 h vs control, p<0.005) was “higher LDH release” and the “viability (MTT assay)” value (HK-2, 1 mg/ml CFH 48 h vs control, p=0.0001) was “substantial decline in viability”.

— patent publication US20250221941A1, “NEPHRON PROGENITOR EXOSOMES” (VANDERBILT UNIVERSITY, priority 2021, published 2025)
